Results as given in paper PMC6476982, “The CXXC Motifs Are Essential for the Function of BosR in Borrelia burgdorferi” (Frontiers in Cellular and Infection Microbiology, 2019).

Molecular target: the molecule itself
Test: SEC; HiLoad 16/60 Superdex 200 prep grade column on an Äkta FPLC in buffer A (20 mM Hepes, 300 mM NaCl, 100 mM L-arginine, 1 mM TCEP, pH 7.0); molecular weight from a calibration curve of gel filtration standards; self-association, dimer or monomer

B1: recombinant BosR with a C-terminal Strep-II tag (WT rBosR-StrepII) (natural protein)
chain: MNDNIIDVHSALEKVGITNDPVLLKNLTSELGMKASHSRNRIILYIASNPKEYFTAKEVYNKLIKEIPSLSKATVYNTLNILKERNILKDIKTTDQKETKFYLSLASTIAHFKCNKCNQVHPIQLDDIKDILKDKLGENWETKSIEIIYSGHCNNCYKKDTHNNNNVPDENKEITL
notes: BosR (Fur family member), Borrelia burgdorferi strain 297, ORF bb0647; bosR amplified with primers from the ATG start codon to the last codon before the stop, fused directly to the Strep-II tag; theoretical MW of rBosR-StrepII 21.25 kDa; also called pOY436; source: E. coli M15 (pREP4), purified (Strep-Tactin resin, Superdex 200 FPLC)
**Q.** How did the “stoichiometry N” value turn out when B1 was run?
**A.** The value was 2.
